# Reference: article PMC6555648 (Molecular cell, 2019)
# Where no end group is shown, it is not given here.
# T1: mouse REC114 residues 1–158 (REC114N) (mouse, UniProt Q9CWH4 1-158, selenomethionine derivative (in the crystals))
# T1 sequence (looked up): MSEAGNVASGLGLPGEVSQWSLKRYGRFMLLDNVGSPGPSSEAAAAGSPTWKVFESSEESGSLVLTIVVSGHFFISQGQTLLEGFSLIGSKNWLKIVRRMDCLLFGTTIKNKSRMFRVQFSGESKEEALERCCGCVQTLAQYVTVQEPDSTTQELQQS
# What was measured:
# [1] = target: T1, mouse REC114 residues 1–158 (REC114N); assay: crystal structure
# [2] = target: T1, mouse REC114 residues 1–158 (REC114N); assay: pull-down
Binder,binding result [1],binding result [2]
"SRESMQTIPHYLQIKEILQISKQELLPCHVMEQHWKFYVGRSHSEALLSW (domain or fragment, UniProt A0A140LI88 1808-1857, looked up, also: selenomethionine derivative) [mouse ANKRD31 residues 1808–1857 (ANKRD31C)]",binds,–
"SRESMQTIPHYLQIKEILQISKQELLPCHVMEQHWKFYVGRSHSEALLSW (domain or fragment, mouse, UniProt A0A140LI88 1808-1857, looked up) [GST-tagged ANKRD31C]",–,binds
